Measurements as given in the supplement of paper PMC9942255.

What follows are sequences tested on Bacillus subtilis DB104 (SP-AmyQ fusion secretion) (assay: AmyQ secretion efficiency, weighted average sort bin (1 = best secretion, 10 = worst) (bin number (weighted average, 1-10)); higher = lower secretion efficiency).
In short: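 The secretion score was taken as the read-frequency-weighted mean bin number, normalised to beads per bin, with low-abundance sequences excluded. Bins came from large-particle flow cytometry sorting of occupied alginate beads (~65 nL, about 0.3 cells each, with fluorescein-starch) into 10 equally populated groups by green/red fluorescence ratio after about 13 h at room temperature and nile red staining. The cells were a B. subtilis DB104 library with mature AmyQ fused to designed signal peptides, integrated at amyE, and each bin's amplicons were Illumina-sequenced.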
For MKKVKRAFIICLSLILSVLAAPPSGAKAESV, the AmyQ secretion efficiency was 1.67. MKLRKVRKGSVLSLGLLVSASPAFATSP was tested, and the AmyQ secretion efficiency was 4.34. Work on MKLAKRVSALTPSTTLAITAKMKEL yielded an AmyQ secretion efficiency of 6.79. For MAIIIAIIAAVIVIAALITFNVRNKSPG, the AmyQ secretion efficiency was 6.36. MGMKKKLSLGVASAALGLALVGGGTWCAFN gave an AmyQ secretion efficiency of 4.28. MFKKHTISLLIIFLLAEAVLAEPIEAHTV gave an AmyQ secretion efficiency of 2.51. With MFSIGSIMACLILFSFTITTFINTETISAFSN the AmyQ secretion efficiency was 5.65. With MKNMSCKLVVSVTLFFSFLTIGPLAPVGVSPVAHAQNS the AmyQ secretion efficiency was 1.75. With MRKYTVIASILLSFLSVLFIVVVTSKAFPV the AmyQ secretion efficiency was 5.84. MKKCLAVTLVFGSMSFPTLTNSGGFKE was tested, and the AmyQ secretion efficiency was 4.92. MKQIMIFLMIFMLLAMTGQTALAKDV gave an AmyQ secretion efficiency of 4.05. With MFKKLLLATSALTFSLSLVLDAKAQEV the AmyQ secretion efficiency was 2.17. For MKKLVLCVSILAVILSGVWLTQLS, the AmyQ secretion efficiency was 5.87. With MKRLLVSLRVWMVFLMNWVTPDRKTRAAAVY the AmyQ secretion efficiency was 6.54. MRRSLALCGLALTLAPCAQAAEP gave an AmyQ secretion efficiency of 2.27. Sequence MMKKLFHSTLIVLLFFSFFGVRKKRRKIHAKKQ has an AmyQ secretion efficiency of 6.23. MKNMSCKLVVSVTLFFSFLFTIGPLAHAQNS was tested, and the AmyQ secretion efficiency was 1.19. For MKKKQVMLALTAAAGLGLTALHSAPALKAAPL, the AmyQ secretion efficiency was 4.89. MSGSSFVLIVCIIFTSALFPTFSSVTAAQG gave an AmyQ secretion efficiency of 1.04. For MKKRLIAPMSGYGASLAFFAMSGSAQAAAY, the AmyQ secretion efficiency was 7.43. MLKKKWMVKRLAGCLAAGGFSYNAFATEN was tested, and the AmyQ secretion efficiency was 7.03. MTTGLLASLVLCLSLSPLVSTNEVFAATT gave an AmyQ secretion efficiency of 4.99. For MTLSVIIAGVLTVAAAAMTAKMYATAKGN, the AmyQ secretion efficiency was 6.67. Work on MKLSVKIAGVLTVAAAAMTAKMYSTAKGN yielded an AmyQ secretion efficiency of 6.41. MKKGIIRFLLVSFVLFFALSTGITGVQCAPA was tested, and the AmyQ secretion efficiency was 6.36. Work on MLKKKWMVGLLAGCLAAGGFSYNEFATEN yielded an AmyQ secretion efficiency of 6.42. In the case of MKRIRIPMTLALGAALTIAPLLSFASAEEN, the AmyQ secretion efficiency is reported as 4.21. For MKKRLIAPMLLSAASLAFFAMSGSAQAAEE, the AmyQ secretion efficiency was 2.23. With MNKPTKLFSTLALAAGMTAAAAGGAGTVHAQQP the AmyQ secretion efficiency was 2.25. Sequence MNLRKILLSSALSLGMLVSAAPVLQTSS has an AmyQ secretion efficiency of 5.33. In the case of MRPVFPYTLSAVLFLSCFFGARQTEASASKR, the AmyQ secretion efficiency is reported as 2.08. Work on MKKKIIRFLLVSFVLFFALSTGITGVQAAPA yielded an AmyQ secretion efficiency of 2.57. In the case of MKVLLSALLLLLFAFEPSYSGKKL, the AmyQ secretion efficiency is reported as 5.87. Work on MRGKSAVLLSLIMLIAGFLISFSFQK yielded an AmyQ secretion efficiency of 9.36. MKKKQQHSTRRKLIVLLFFSFFGVQPIHAKKQ gave an AmyQ secretion efficiency of 5.23. MTLGGSVSMFLVALTMCGGLFVTPAKAVKT was tested, and the AmyQ secretion efficiency was 3.81. With MKRLLSTLLIGIMLLEQQPKAFAKQD the AmyQ secretion efficiency was 1.64. MKMKSGMEQAVSVLLLLSRLPVQASNTSE gave an AmyQ secretion efficiency of 5.73. In the case of MRNLTKTSLLLAGLCTAAQMVFVTHASGEES, the AmyQ secretion efficiency is reported as 2.76. Sequence MLKRLIAPMLLSAASLAFFAMSGSAQAAAY has an AmyQ secretion efficiency of 3.75. For MKKWMITIAMLILAGIALFVFISPSKSHKT, the AmyQ secretion efficiency was 6.65. MPYLKRGGLLLVTGLFMSLFAVTATASAQTG gave an AmyQ secretion efficiency of 1.51. For MKRIRIPMTLALGAALTIAPLSFVSAEEN, the AmyQ secretion efficiency was 2.58. With MGMKRVITCVMAASLTLGSLLPAGYATAKED the AmyQ secretion efficiency was 6.01. Sequence MGLGKKLSVAVAASFMSLSISLPGVQFAEG has an AmyQ secretion efficiency of 4.64. MKLAKRVSALTPSTTLAIVAKAKEL gave an AmyQ secretion efficiency of 6.85. Work on MRPVFPLKRSAVLFLSCFFGARQTEASASKR yielded an AmyQ secretion efficiency of 8.12. For “MKSKGSIMACLILFSFTITIILVTLIIVATFINTETISAFSN”, the AmyQ secretion efficiency was 6.84. For MLTKRLLTIYIMLLGLIAWFPGAAQAAED, the AmyQ secretion efficiency was 2.99. In the case of MKRKRLFIFSAILTLSIFAPNETFAQTA, the AmyQ secretion efficiency is reported as 1.57. Work on MRSYIKVLTMCFLGLILFVPTRLADNS yielded an AmyQ secretion efficiency of 6.28. MKRIRIPMTLALSAALIIALLSFASAEEN showed an AmyQ secretion efficiency of 5.6. Sequence MKKRRKSFVAVAALSTTAFGAHASAKEI has an AmyQ secretion efficiency of 6.63. With MILKSKLLLSCLALSTVFVATTIANAPTH the AmyQ secretion efficiency was 6.38. Work on MGMKKKLSLGVASAALGLALVGKKRTWAAFN yielded an AmyQ secretion efficiency of 8.1. With MKRSISIFITCLLITLLTMGGMIASPASAEDE the AmyQ secretion efficiency was 2.08. Work on MKRLLSTLLIGIMLLKRKRRRAFAKQD yielded an AmyQ secretion efficiency of 8.09. MKKKRVMLALTAAAGLGLTALHSAPAAKAAPL gave an AmyQ secretion efficiency of 2.47. In the case of MRSYIKVLTMCFLGLILFVPTALVDNS, the AmyQ secretion efficiency is reported as 5.38. MTMLRKIRRKKLLLCIIPLFAFTVIASGKEV gave an AmyQ secretion efficiency of 6.88. MRMLWRSLALCGLALTLAPCAQWAEP was tested, and the AmyQ secretion efficiency was 5.9. MKRITINSNFSNIITMFIAAAVISLTGTAEAAEK gave an AmyQ secretion efficiency of 3.07. In the case of MFKKPTISLLIIFLLASAVLAKPIEAHTV, the AmyQ secretion efficiency is reported as 2.38. For MKKFLVALTMCGGLFVTPAKAVKT, the AmyQ secretion efficiency was 3.65.
